Measured values as given in patent US20150344570A1 (published 2015).

B1: GpH7-A5/GpH7-B3 variant S324_18N/GpL16-k0 (antibody, human IgG1, kappa)
heavy 1: not shown
heavy 2: not shown
light: DIVMTQSPLSLPVTPGEPASISCQASESLVHSNRNTYLHWYLQKPGQSPQLLIYKVSNRFSGVPDRFSGSGSGTDFTLKISRVEAEDVGVYYCSQNTHVPPTFGQGTKVEIERTVAAPSVFIFPPSDEQLKSGTASVVCLLNNFYPREAKVQWKVDNALQSGNSQESVTEQDSKDSTYSLSSTLTLSKADYEKHKVYACEVTHQGLSSPVTKSFNRGEC
notes: also called He Ab S324_18N
B2: GpH7-A5/GpH7-B3 variant S337_09D/GpL16-k0 (antibody, human IgG1, kappa)
heavy 1: not shown
heavy 2: not shown
light: DIVMTQSPLSLPVTPGEPASISCQASESLVHSNRNTYLHWYLQKPGQSPQLLIYKVSNRFSGVPDRFSGSGSGTDFTLKISRVEAEDVGVYYCSQNTHVPPTFGQGTKVEIERTVAAPSVFIFPPSDEQLKSGTASVVCLLNNFYPREAKVQWKVDNALQSGNSQESVTEQDSKDSTYSLSSTLTLSKADYEKHKVYACEVTHQGLSSPVTKSFNRGEC
notes: also called He Ab S337_09D
B3: GpH7-A5/GpH7-B3 variant S337_03V/GpL16-k0 (antibody, human IgG1, kappa)
heavy 1: not shown
heavy 2: not shown
light: DIVMTQSPLSLPVTPGEPASISCQASESLVHSNRNTYLHWYLQKPGQSPQLLIYKVSNRFSGVPDRFSGSGSGTDFTLKISRVEAEDVGVYYCSQNTHVPPTFGQGTKVEIERTVAAPSVFIFPPSDEQLKSGTASVVCLLNNFYPREAKVQWKVDNALQSGNSQESVTEQDSKDSTYSLSSTLTLSKADYEKHKVYACEVTHQGLSSPVTKSFNRGEC
notes: also called He Ab S337_03V
B4: GpH7-A5/GpH7-B3 variant S337_19Q/GpL16-k0 (antibody, human IgG1, kappa)
heavy 1: not shown
heavy 2: not shown
light: DIVMTQSPLSLPVTPGEPASISCQASESLVHSNRNTYLHWYLQKPGQSPQLLIYKVSNRFSGVPDRFSGSGSGTDFTLKISRVEAEDVGVYYCSQNTHVPPTFGQGTKVEIERTVAAPSVFIFPPSDEQLKSGTASVVCLLNNFYPREAKVQWKVDNALQSGNSQESVTEQDSKDSTYSLSSTLTLSKADYEKHKVYACEVTHQGLSSPVTKSFNRGEC
notes: also called He Ab S337_19Q
B5: GpH7-A5/GpH7-B3 variant S337_02A/GpL16-k0 (antibody, human IgG1, kappa)
heavy 1: not shown
heavy 2: not shown
light: DIVMTQSPLSLPVTPGEPASISCQASESLVHSNRNTYLHWYLQKPGQSPQLLIYKVSNRFSGVPDRFSGSGSGTDFTLKISRVEAEDVGVYYCSQNTHVPPTFGQGTKVEIERTVAAPSVFIFPPSDEQLKSGTASVVCLLNNFYPREAKVQWKVDNALQSGNSQESVTEQDSKDSTYSLSSTLTLSKADYEKHKVYACEVTHQGLSSPVTKSFNRGEC
notes: also called He Ab S337_02A
B6: GpH7-A5/GpH7-B3 variant S337_12R/GpL16-k0 (antibody, human IgG1, kappa)
heavy 1: not shown
heavy 2: not shown
light: DIVMTQSPLSLPVTPGEPASISCQASESLVHSNRNTYLHWYLQKPGQSPQLLIYKVSNRFSGVPDRFSGSGSGTDFTLKISRVEAEDVGVYYCSQNTHVPPTFGQGTKVEIERTVAAPSVFIFPPSDEQLKSGTASVVCLLNNFYPREAKVQWKVDNALQSGNSQESVTEQDSKDSTYSLSSTLTLSKADYEKHKVYACEVTHQGLSSPVTKSFNRGEC
notes: also called He Ab S337_12R
B7: GpH7-A5/GpH7-B3 variant S337_01G/GpL16-k0 (antibody, human IgG1, kappa)
heavy 1: not shown
heavy 2: not shown
light: DIVMTQSPLSLPVTPGEPASISCQASESLVHSNRNTYLHWYLQKPGQSPQLLIYKVSNRFSGVPDRFSGSGSGTDFTLKISRVEAEDVGVYYCSQNTHVPPTFGQGTKVEIERTVAAPSVFIFPPSDEQLKSGTASVVCLLNNFYPREAKVQWKVDNALQSGNSQESVTEQDSKDSTYSLSSTLTLSKADYEKHKVYACEVTHQGLSSPVTKSFNRGEC
notes: also called He Ab S337_01G
B8: GpH7-A5/GpH7-B3 variant S337_04F/GpL16-k0 (antibody, human IgG1, kappa)
heavy 1: not shown
heavy 2: not shown
light: DIVMTQSPLSLPVTPGEPASISCQASESLVHSNRNTYLHWYLQKPGQSPQLLIYKVSNRFSGVPDRFSGSGSGTDFTLKISRVEAEDVGVYYCSQNTHVPPTFGQGTKVEIERTVAAPSVFIFPPSDEQLKSGTASVVCLLNNFYPREAKVQWKVDNALQSGNSQESVTEQDSKDSTYSLSSTLTLSKADYEKHKVYACEVTHQGLSSPVTKSFNRGEC
notes: also called He Ab S337_04F
B9: GpH7-A5/GpH7-B3 variant S324_20W/GpL16-k0 (antibody, human IgG1, kappa)
heavy 1: not shown
heavy 2: not shown
light: DIVMTQSPLSLPVTPGEPASISCQASESLVHSNRNTYLHWYLQKPGQSPQLLIYKVSNRFSGVPDRFSGSGSGTDFTLKISRVEAEDVGVYYCSQNTHVPPTFGQGTKVEIERTVAAPSVFIFPPSDEQLKSGTASVVCLLNNFYPREAKVQWKVDNALQSGNSQESVTEQDSKDSTYSLSSTLTLSKADYEKHKVYACEVTHQGLSSPVTKSFNRGEC
notes: also called He Ab S324_20W
B10: GpH7-A5/GpH7-B3 variant S337_20W/GpL16-k0 (antibody, human IgG1, kappa)
heavy 1: not shown
heavy 2: not shown
light: DIVMTQSPLSLPVTPGEPASISCQASESLVHSNRNTYLHWYLQKPGQSPQLLIYKVSNRFSGVPDRFSGSGSGTDFTLKISRVEAEDVGVYYCSQNTHVPPTFGQGTKVEIERTVAAPSVFIFPPSDEQLKSGTASVVCLLNNFYPREAKVQWKVDNALQSGNSQESVTEQDSKDSTYSLSSTLTLSKADYEKHKVYACEVTHQGLSSPVTKSFNRGEC
notes: also called He Ab S337_20W
B11: GpH7-A5/GpH7-B3 variant S337_06M/GpL16-k0 (antibody, human IgG1, kappa)
heavy 1: not shown
heavy 2: not shown
light: DIVMTQSPLSLPVTPGEPASISCQASESLVHSNRNTYLHWYLQKPGQSPQLLIYKVSNRFSGVPDRFSGSGSGTDFTLKISRVEAEDVGVYYCSQNTHVPPTFGQGTKVEIERTVAAPSVFIFPPSDEQLKSGTASVVCLLNNFYPREAKVQWKVDNALQSGNSQESVTEQDSKDSTYSLSSTLTLSKADYEKHKVYACEVTHQGLSSPVTKSFNRGEC
notes: also called He Ab S337_06M
B12: GpH7-A5/GpH7-B3 variant S324_19Q/GpL16-k0 (antibody, human IgG1, kappa)
heavy 1: not shown
heavy 2: not shown
light: DIVMTQSPLSLPVTPGEPASISCQASESLVHSNRNTYLHWYLQKPGQSPQLLIYKVSNRFSGVPDRFSGSGSGTDFTLKISRVEAEDVGVYYCSQNTHVPPTFGQGTKVEIERTVAAPSVFIFPPSDEQLKSGTASVVCLLNNFYPREAKVQWKVDNALQSGNSQESVTEQDSKDSTYSLSSTLTLSKADYEKHKVYACEVTHQGLSSPVTKSFNRGEC
notes: also called He Ab S324_19Q
B13: GpH7-A5/GpH7-B3 variant S337_10E/GpL16-k0 (antibody, human IgG1, kappa)
heavy 1: not shown
heavy 2: not shown
light: DIVMTQSPLSLPVTPGEPASISCQASESLVHSNRNTYLHWYLQKPGQSPQLLIYKVSNRFSGVPDRFSGSGSGTDFTLKISRVEAEDVGVYYCSQNTHVPPTFGQGTKVEIERTVAAPSVFIFPPSDEQLKSGTASVVCLLNNFYPREAKVQWKVDNALQSGNSQESVTEQDSKDSTYSLSSTLTLSKADYEKHKVYACEVTHQGLSSPVTKSFNRGEC
notes: also called He Ab S337_10E
B14: GpH7-A5/GpH7-B3 variant S337_08L/GpL16-k0 (antibody, human IgG1, kappa)
heavy 1: not shown
heavy 2: not shown
light: DIVMTQSPLSLPVTPGEPASISCQASESLVHSNRNTYLHWYLQKPGQSPQLLIYKVSNRFSGVPDRFSGSGSGTDFTLKISRVEAEDVGVYYCSQNTHVPPTFGQGTKVEIERTVAAPSVFIFPPSDEQLKSGTASVVCLLNNFYPREAKVQWKVDNALQSGNSQESVTEQDSKDSTYSLSSTLTLSKADYEKHKVYACEVTHQGLSSPVTKSFNRGEC
notes: also called He Ab S337_08L
B15: GpH7-A5/GpH7-B3 variant S337_07I/GpL16-k0 (antibody, human IgG1, kappa)
heavy 1: not shown
heavy 2: not shown
light: DIVMTQSPLSLPVTPGEPASISCQASESLVHSNRNTYLHWYLQKPGQSPQLLIYKVSNRFSGVPDRFSGSGSGTDFTLKISRVEAEDVGVYYCSQNTHVPPTFGQGTKVEIERTVAAPSVFIFPPSDEQLKSGTASVVCLLNNFYPREAKVQWKVDNALQSGNSQESVTEQDSKDSTYSLSSTLTLSKADYEKHKVYACEVTHQGLSSPVTKSFNRGEC
notes: also called He Ab S337_07I
B16: GpH7-A5/GpH7-B3 variant S337_15Y/GpL16-k0 (antibody, human IgG1, kappa)
heavy 1: not shown
heavy 2: not shown
light: DIVMTQSPLSLPVTPGEPASISCQASESLVHSNRNTYLHWYLQKPGQSPQLLIYKVSNRFSGVPDRFSGSGSGTDFTLKISRVEAEDVGVYYCSQNTHVPPTFGQGTKVEIERTVAAPSVFIFPPSDEQLKSGTASVVCLLNNFYPREAKVQWKVDNALQSGNSQESVTEQDSKDSTYSLSSTLTLSKADYEKHKVYACEVTHQGLSSPVTKSFNRGEC
notes: also called He Ab S337_15Y

Molecular target: T1, FcγRIa (human, UniProt P12314 16-292)
T1 construct: extracellular domain; Soluble extracellular domain expressed in FreeStyle293 cells, used as analyte in Biacore; also called FcgRI; 1a; not shown: His tag attached to the C terminus
T1 sequence (P12314 16-292): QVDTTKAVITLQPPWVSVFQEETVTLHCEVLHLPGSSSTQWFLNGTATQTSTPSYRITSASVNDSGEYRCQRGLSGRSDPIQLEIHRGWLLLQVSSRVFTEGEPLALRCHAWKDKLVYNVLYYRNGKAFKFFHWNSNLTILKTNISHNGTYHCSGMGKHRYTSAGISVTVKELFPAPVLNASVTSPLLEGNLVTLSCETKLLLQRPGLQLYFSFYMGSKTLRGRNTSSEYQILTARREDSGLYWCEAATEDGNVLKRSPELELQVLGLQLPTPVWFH
Assay: SPR (Biacore); He Ab vs HeCon Ab GpH7-A5/GpH7-B3/GpL16-k0
Description: Analysis of interaction between objective antibody and the FcγR was carried out using Biacore T100 (GE Healthcare). HBS-EP+ (GE Healthcare) was used as the running buffer, and the measurement temperature was set to 25° C. Chips produced by immobilizing the antigen peptide by the amine coupling method to a Series S Sencor Chip CM5 (GE Healthcare), or alternatively, chips produced by allowing preliminarily biotinylated antigen peptides to interact with and immobilize onto a Series S Sensor Chip SA (certified) (GE Healthcare) were used. Antibodies of interest were captured onto an antigen peptide-immobilized chip, and allowed to interact to each FcγR diluted with running buffer. To regenerate and repeatedly use the chip, the antibodies captured on the chip were washed off by reacting 10 mM glycine-HCl, pH 1.5.

Binder | He/Con_1a
B1 | 116 relative binding, control = 100
B2 | 106 relative binding, control = 100
B3 | 107 relative binding, control = 100
B4 | 105 relative binding, control = 100
B5 | 106 relative binding, control = 100
B6 | 106 relative binding, control = 100
B7 | 107 relative binding, control = 100
B8 | 106 relative binding, control = 100
B9 | 114 relative binding, control = 100
B10 | 105 relative binding, control = 100
B11 | 107 relative binding, control = 100
B12 | 112 relative binding, control = 100
B13 | 106 relative binding, control = 100
B14 | 105 relative binding, control = 100
B15 | 105 relative binding, control = 100
B16 | 104 relative binding, control = 100
